The text below walks through data of publication PMC9579148 (European Journal of Medicinal Chemistry, 2022).

No end group written: not given here.

The target of the first experiment is recombinant SARS-CoV-2 M^pro (Proteros) (SARS-CoV-2). Nature of the experiment: FRET enzymatic inhibition assay.
For the molecule Ac-Gly-Tyr-His-aldehyde (SMILES CC(=O)NCC(=O)N[C@@H](Cc1ccc(O)cc1)C(=O)N[C@H](C=O)Cc1c[nH]cn1) [compound 8 (aldehydic tripeptide)], the equilibrium dissociation constant (Kd) came to 98.9 ± 11.9 µM.
On the same count and under the same terms, with Ac-Gly-His-Tyr-aldehyde (SMILES CC(=O)NCC(=O)N[C@@H](Cc1c[nH]cn1)C(=O)N[C@H](C=O)Cc1ccc(O)cc1) [compound 7 (aldehydic tripeptide)] the figure was more than 213 µM; with Ac-Gly-His-His-aldehyde (SMILES CC(=O)NCC(=O)N[C@@H](Cc1c[nH]cn1)C(=O)N[C@H](C=O)Cc1c[nH]cn1) [compound 5 (aldehydic tripeptide)], more than 107 µM; with Pro-His-His-aldehyde [compound 9 (aldehydic tripeptide)], more than 85 µM.

A further experiment shares this target. Nature of the experiment: cell-based or functional assay.
Ac-Gly-Tyr-His-aldehyde (SMILES CC(=O)NCC(=O)N[C@@H](Cc1ccc(O)cc1)C(=O)N[C@H](C=O)Cc1c[nH]cn1) [compound 8 (aldehydic tripeptide)]: the “IC50 of inhibition of M^pro enzymatic activity (FRET substrate cleavage)” value was 198 µM.
Same read-out and setting: in the case of Ac-Gly-His-Tyr-aldehyde (SMILES CC(=O)NCC(=O)N[C@@H](Cc1c[nH]cn1)C(=O)N[C@H](C=O)Cc1ccc(O)cc1) [compound 7 (aldehydic tripeptide)] it was more than 425 µM; in that of Ac-Gly-His-His-aldehyde (SMILES CC(=O)NCC(=O)N[C@@H](Cc1c[nH]cn1)C(=O)N[C@H](C=O)Cc1c[nH]cn1) [compound 5 (aldehydic tripeptide)], more than 213 µM.
Still for that read-out and setting: in the case of Pro-His-His-aldehyde [compound 9 (aldehydic tripeptide)] it was more than 170 µM.

What is called Kd is the concentration at which binding is half-saturated.
